Molecular target: prekallikrein (PK), P03952
Sequence (P03952 20-638): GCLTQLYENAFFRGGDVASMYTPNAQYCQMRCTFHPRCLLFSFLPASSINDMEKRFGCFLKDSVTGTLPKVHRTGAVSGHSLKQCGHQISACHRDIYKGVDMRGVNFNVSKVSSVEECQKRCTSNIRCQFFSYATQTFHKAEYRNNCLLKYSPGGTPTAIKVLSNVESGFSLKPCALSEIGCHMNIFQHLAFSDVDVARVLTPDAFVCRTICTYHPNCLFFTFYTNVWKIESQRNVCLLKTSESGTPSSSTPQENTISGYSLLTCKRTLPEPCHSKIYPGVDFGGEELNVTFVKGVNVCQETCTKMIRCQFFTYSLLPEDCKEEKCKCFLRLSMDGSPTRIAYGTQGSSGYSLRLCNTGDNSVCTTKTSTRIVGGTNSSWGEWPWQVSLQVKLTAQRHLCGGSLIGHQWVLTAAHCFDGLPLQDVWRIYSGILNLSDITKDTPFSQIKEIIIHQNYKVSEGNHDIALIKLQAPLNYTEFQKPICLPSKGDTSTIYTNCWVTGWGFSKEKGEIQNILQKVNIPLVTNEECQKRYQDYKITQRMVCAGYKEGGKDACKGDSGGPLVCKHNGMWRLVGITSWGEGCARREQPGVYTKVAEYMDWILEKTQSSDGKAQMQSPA

B1: recombinant PRCP51 (recombinant human prolylcarboxypeptidase, predicted molecular mass 51 kDa) (protein)
chain: KNYSVLYFQQKVDHFGFNTVKTFNQRYLVADKYWKKNGGSILFYTGNEGDIIWFCNNTGFMWDVAEELKAMLVFAEHRYYGESLPFGDNSFKDSRHLNFLTSEQALADFAELIKHLKRTIPGAENQPVIAIGGSYGGMLAAWFRMKYPHMVVGALAASAPIWQFEDLVPCGVFMKIVTTDFRKSGPHCSESIHRSWDAINRLSNTGSGLQWLTGALHLCSPLTSQDIQHLKDWISETWVNLAMVDYPYASNFLQPLPAWPIKVVCQYLKNPNVSDSLLLQNIFQALNVYYNYSGQVKCLNISETATSSLGTLGWSYQACTEVVMPFCTNGVDDMFEPHSWNLKELSDDCFQQWGVRPRPSWITTMYGGKNISSHTNIVFSNGELDPWSGGGVTKDITDTLVAVTISEGAHHLDLRTKNALDPMSVLLARSLEVRHMKNWIRDFYDSAGKQH
Km of prekallikrein activation: Recombinant PRCP51 activates PK with a Km and Vmax of 9 nM and 0.2 min^-1, respectively
Vmax of prekallikrein activation: Recombinant PRCP51 activates PK with a Km and Vmax of 9 nM and 0.2 min^-1, respectively

From patent US20080194485
